This passage reports Kd and fold reduction in binding affinity (against wild type Pin1) results from US7127357.

In test [1] the target is LYRpSPS (Cdc25c-S214), rhodamine-labeled (human). Briefly: fluorescence anisotropy, labeled peptide constant, protein varied. On the technique in general: Polarisation of emitted light reports the rotation of a fluorescent probe.
Test [2] concerns the target PPApTPP (Myt1-T412), rhodamine-labeled (human). The test is described as above.
Test [3] concerns the target PPGpSPP (Myt1-S416), rhodamine-labeled (human). The description is as above.
Test [4] has as its target STSpTPR (Myt1-T455), rhodamine-labeled (human). The test is described as above.
For test [5], the target named is VPRpTPV (Cdc25c-T48), rhodamine-labeled (human). The test is described as above.
Test [6] addresses WFYpSPFLE (Pintide), rhodamine-labeled. The description is as above.
Test [7] concerns the target YLGpSPI (Cdc25c-S168), rhodamine-labeled (human). The test is described as above.
Test [8] deals with YSPTpSPS (CTD-S5), rhodamine-labeled (human). Described as above.
The target of test [9] is YpSPTSPS (CTD-S2), rhodamine-labeled (human). Described as above.
Test [10] deals with YpSPTpSPS (CTD-S2/S5), doubly phosphorylated CTD peptide (human). The test is described as above.
For test [11], the target named is GSSpSPV (Wee1-S123), rhodamine-labeled (human). Described as above.
The target of test [12] is YpSPTpSPS (CTD-S2/S5), doubly phosphorylated CTD peptide (human). Briefly: fluorescence anisotropy.

The term Kd denotes a measure of binding affinity in units of concentration. As for “isolated WW domain of human Pin1 (from UniProt Q13526 1-39)”, the Kd in [1] amounted to 72 µM; in [2], 15 µM; in test [3] it was 126 µM; in test [4], 39 µM; in test [5], 7.7 µM; in test [6], 44 µM. Moreover, the Kd in test [7] is 91 µM; in test [8] it was 34 µM; in [9] it was 110 µM; in test [10], 34 µM.

As for “human Pin1 (full length, wild type) (from UniProt Q13526 1-163) (enzyme)”, the Kd was 73 µM in [11]; 47 µM in test [1]; 12 µM in [2]; 80 µM in [3]; 46 µM in [4]; 4.9 µM in [5]. The Kd amounted to 17 µM in [6]; 69 µM in test [7]; 30 µM in [8]; 61 µM in test [9]; 10 µM in test [10].

“isolated PPIase domain of human Pin1 (from UniProt Q13526 50-163) (enzyme)”: the Kd in [6] amounted to 86 µM; in test [10], 390 µM.

Turning to “Pin1 Trp-34 to Phe mutant (from UniProt Q13526 1-163) (enzyme)”, the fold reduction in binding affinity (against wild type Pin1) in [12] was 6 fold.
